The record followed here is paper PMC7755189, “Phosphorylation of seryl-tRNA synthetase by ATM/ATR is essential for hypoxia-induced angiogenesis”.

In this data set the target is SerRS WT (Homo sapiens, UniProt P49591 1-514). In words: EMSA; EMSA: 20 mM Tris-HCl pH 8.0, 60 mM KCl, 5 mM MgCl2, 0.1 mg/mL BSA, 10 ng/uL poly(dG-dC), 1 mM DTT, 30 min, room temperature; 0.08 pmol labeled DNA; 5% native PAGE. As to conditions: protein: recombinant; tags: C-terminal His6; chain copies: 2; label: 5'-32P; annealed oligonucleotides. Background: A gel shift assay detects complexes by their altered migration in electrophoresis.
SerRS WT, sequence (P49591 whole entry): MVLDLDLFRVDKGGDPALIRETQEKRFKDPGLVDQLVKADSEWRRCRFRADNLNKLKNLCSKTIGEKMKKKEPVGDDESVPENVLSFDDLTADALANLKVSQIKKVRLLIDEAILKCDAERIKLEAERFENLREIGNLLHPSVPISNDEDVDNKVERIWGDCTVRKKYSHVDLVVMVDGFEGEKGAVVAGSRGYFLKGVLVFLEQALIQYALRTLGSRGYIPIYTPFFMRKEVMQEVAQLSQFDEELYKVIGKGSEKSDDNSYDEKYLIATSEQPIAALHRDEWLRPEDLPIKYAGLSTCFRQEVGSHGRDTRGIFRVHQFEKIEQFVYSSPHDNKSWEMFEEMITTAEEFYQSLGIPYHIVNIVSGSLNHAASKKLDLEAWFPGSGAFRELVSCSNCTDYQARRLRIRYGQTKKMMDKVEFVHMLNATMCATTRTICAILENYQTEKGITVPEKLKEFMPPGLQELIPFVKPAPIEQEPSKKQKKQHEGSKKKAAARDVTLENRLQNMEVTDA

B1: VEGFA promoter SerRS binding site 27 bp (dsDNA)
DNA 1: GGCGGGGCGGAGCCATGCGCCCCCCCC
DNA 2: GGGGGGGGCGCATGGCTCCGCCCCGCC
B1: the binding result is reported as “binds”.
